PMC3998727 (Nature medicine, 2012)

B1: BMP7: Bone morphogenetic protein–7, member of the TGF-β superfamily, natural ligand of Alk3 (protein, UniProt P18075 293-431, looked up)
Bone morphogenetic protein 7: STGSKQRSQNRSKTPKNQEALRMANVAENSSSDQRQACKKHELYVSFRDLGWQDWIIAPEGYAAYYCEGECAFPLNSYMNATNHAIVQTLVHFINPETVPKPCCAPTQLNAISVLYFDDSSNVILKKYRNMVVRACGCH

What was measured:
DN kidney [1] = experiment: Advanced diabetic nephropathy, captopril and THR–123 combination; assay type: in vivo, mice; details: eight months DN
[2] = tested on: tubular epithelial cells (TECs; NP–1 cells); experiment: Hypoxia induced apoptosis of TECs; assay type: cell-based; details: Annexin V; NP–1 cells in hypoxia
TECs (NP–1 cells) = experiment: Reversal of TGF-β and EGF induced EMT in TECs; assay type: cell-based; details: TECs after 48 hours of incubation with TGF-β and EGF
DN kidney [3] = experiment: Streptozotocin–induced diabetic nephropathy; assay type: in vivo, CD–1 mice

Molecule	EMT program (DN kidney [1])	macrophage infiltration (DN kidney [1]; Mac–1)	hypoxia induced apoptosis of TECs [2]	reversal of TGF-β–induced EMT (TECs (NP–1 cells))	mesangium expansion (DN kidney [3]; STZ–induced six month DN, BMP7 1–6 months, THR–123 5–6 months treatment)	induction of an EMT program (DN kidney [3]; six months DN)	renal dysfunction (blood urea nitrogen) (DN kidney [3]; six months DN)	macrophage infiltration (DN kidney [3]; six months DN, Mac–1, F4/80)
C[C@H](CS)C(=O)N1CCC[C@H]1C(=O)O [CPR, captopril]	inhibited	inhibited macrophage infiltration	–	–	–	–	–	–
B1	–	–	inhibited	reversed	inhibited mesangium expansion	inhibited induction of an EMT program	significantly reversed renal dysfunction	reduced macrophage infiltration
